From the supplement of paper PMC11865577

Columns and labels:
Assay in all cases: pull-down binding Z-score (relative to library population); higher = stronger binding
Settings in all cases: RNA library: Library-2
[1] = system: TO-3-N3 (biotin conjugate)
Summary of the method: (§1)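 A heat-folded, dye-end-labelled (Cy5 or Cy3) RNA library (1 μg, phosphate/NaCl/KCl buffer) was exposed for 60 min at 25 °C to streptavidin beads holding 100 pmol of biotin-conjugated small molecule. RNA retained on the beads was eluted in hot SDS and hybridised to a DNA barcode microarray for 20 h at 55.5 °C. Binding scores were Z-scores against the library mean and standard deviation, calculated after subtracting beads alone and taking trimmed means of replicate probes.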

[2] = system: TO-3-N3-2 (biotin conjugate)
Summary of the method: as §1

[3] = system: TO-N3-2 (biotin conjugate)
Summary of the method: as §1

TO-N3 (biotin conjugate) = system: TO-N3 (biotin conjugate)
Summary of the method: as §1

Sequence: AAAAACACCCAAGAAGUUUUU
- pull-down binding Z-score [1]: -0.552
- pull-down binding Z-score [2]: -0.458
- pull-down binding Z-score [3]: -0.932
- pull-down binding Z-score (TO-N3 (biotin conjugate)): -0.802

Sequence: AAAAAUCUUAGGGAAUUUGUGUUUAAGAAUAUUGAUGGUUAUUUUAAAAUAUAUUCUAAGCACACGCCUAUUAAUUUAGUGCGUGAUCUCCCUCAGGGUUUUU
- pull-down binding Z-score [1]: -0.855
- pull-down binding Z-score [2]: 0.151
- pull-down binding Z-score [3]: -0.421
- pull-down binding Z-score (TO-N3 (biotin conjugate)): -0.959

Sequence: AAACCCGGUAAUUUUAACAAAGACUUCUAUGACUUUGCUGUGUCUAAGGGUUU [SHAPE_invivo_SARS-CoV-2_Motif_278]
- pull-down binding Z-score [1]: -0.52
- pull-down binding Z-score [2]: -0.338
- pull-down binding Z-score [3]: -0.917
- pull-down binding Z-score (TO-N3 (biotin conjugate)): -0.677

Sequence: AAACCUAAUGAAUUAUCUAGAGUAUUAGGUUU [SHAPE_invitro_SARS-CoV-2_Motif_132]
- pull-down binding Z-score [1]: -0.888
- pull-down binding Z-score [2]: -0.157
- pull-down binding Z-score [3]: -1.06
- pull-down binding Z-score (TO-N3 (biotin conjugate)): -0.985

Sequence: AAACGAACUAAAUAUUAUAUUAGUUUUUCUGUUU
- pull-down binding Z-score [1]: -0.375
- pull-down binding Z-score [2]: 0.491
- pull-down binding Z-score [3]: -0.324
- pull-down binding Z-score (TO-N3 (biotin conjugate)): -0.211

Sequence: AAACUCAAACCCGUCCUUGAUUGGCUUGAAGAGAAGUUUAAGGAAGGUGUAGAGUUU
- pull-down binding Z-score [1]: -0.653
- pull-down binding Z-score [2]: 0.119
- pull-down binding Z-score [3]: -0.346
- pull-down binding Z-score (TO-N3 (biotin conjugate)): -0.588

Sequence: AAACUUGUGCCCUUUUGGUGAAGUUUUUAACGCCACCAGAUUUGCAUCUGUUU [SHAPE_invivo_SARS-CoV-2_Motif_425]
- pull-down binding Z-score [1]: -1.12
- pull-down binding Z-score [2]: -0.449
- pull-down binding Z-score [3]: -0.751
- pull-down binding Z-score (TO-N3 (biotin conjugate)): -1.3

Sequence: AAAGGACUGGUAUGAUUUUGUAGAAAACCCAGAUAUAUUACGCGUAUACGCCAACUUAGGUGAACGUGUACGCCAAGCUUU
- pull-down binding Z-score [1]: -0.541
- pull-down binding Z-score [2]: -0.0434
- pull-down binding Z-score [3]: 0.0415
- pull-down binding Z-score (TO-N3 (biotin conjugate)): -0.193

Sequence: AAAGUGCAGUGAAAAGAACAAUCAAGGGUACACACCACUGGUUGUUACUCACAAUUUUGACUUCACUUU
- pull-down binding Z-score [1]: -0.381
- pull-down binding Z-score [2]: -0.0864
- pull-down binding Z-score [3]: 0.0106
- pull-down binding Z-score (TO-N3 (biotin conjugate)): -0.172

Sequence: AAAGUGCUUUUGUUAAUUUAAAACAAUUACCAUUUU [SHAPE_invivo_SARS-CoV-2_Motif_363]
- pull-down binding Z-score [1]: -0.825
- pull-down binding Z-score [2]: -0.408
- pull-down binding Z-score [3]: -1.63
- pull-down binding Z-score (TO-N3 (biotin conjugate)): -1.18

Sequence: AAAUAAGUACGAUACUUACCUG [U1snRNP5ss-3]
- pull-down binding Z-score [1]: -0.109
- pull-down binding Z-score [2]: 0.279
- pull-down binding Z-score [3]: 0.324
- pull-down binding Z-score (TO-N3 (biotin conjugate)): -0.0474

Sequence: AAAUAAGUAUGAUACUUACCUG [U1snRNP5ss-4]
- pull-down binding Z-score [1]: -0.522
- pull-down binding Z-score [2]: -0.0682
- pull-down binding Z-score [3]: -0.672
- pull-down binding Z-score (TO-N3 (biotin conjugate)): -0.506

Sequence: AAAUUACCAUUUCAUCUUUUAAAUGGGAUUU
- pull-down binding Z-score [1]: 0.204
- pull-down binding Z-score [2]: -0.151
- pull-down binding Z-score [3]: -1.21
- pull-down binding Z-score (TO-N3 (biotin conjugate)): -0.0633

Sequence: AAAUUCUUGGAACUGUUUCUUGGAAUUU
- pull-down binding Z-score [1]: -0.802
- pull-down binding Z-score [2]: -0.163
- pull-down binding Z-score [3]: -1.37
- pull-down binding Z-score (TO-N3 (biotin conjugate)): -1.22

Sequence: AAAUUGCCGAUAAGUAUGUCCGCAAUUU
- pull-down binding Z-score [1]: -0.317
- pull-down binding Z-score [2]: -0.436
- pull-down binding Z-score [3]: -1.13
- pull-down binding Z-score (TO-N3 (biotin conjugate)): -0.683

Sequence: AAAUUUACAAAACACCACCAAUUAAAGAUUUUGGUGGUUUUAAUUU [DMSMaPseq_invitro_SARS-CoV-2_Motif_425]
- pull-down binding Z-score [1]: 1.34
- pull-down binding Z-score [2]: 0.331
- pull-down binding Z-score [3]: -0.725
- pull-down binding Z-score (TO-N3 (biotin conjugate)): 1.06

Sequence: AAAUUUACAAGAAUUU [SHAPE_invivo_SARS-CoV-2_Motif_380]
- pull-down binding Z-score [1]: -0.131
- pull-down binding Z-score [2]: -0.556
- pull-down binding Z-score [3]: -1.48
- pull-down binding Z-score (TO-N3 (biotin conjugate)): -0.556

Sequence: AAAUUUUUGGCUUUGUGUGCUGACUCUAUCAUUAUUGGUGGAGCUAAACUUAAAGCCUUGAAUUU [SHAPE_invivo_SARS-CoV-2_Motif_45]
- pull-down binding Z-score [1]: 0.0535
- pull-down binding Z-score [2]: -0.123
- pull-down binding Z-score [3]: -0.994
- pull-down binding Z-score (TO-N3 (biotin conjugate)): -0.00867

Sequence: AACAAAUGUGUCAAUUUCAACUUCAAUGGUUUAACAGGCACAGGUGUU
- pull-down binding Z-score [1]: -0.698
- pull-down binding Z-score [2]: -0.221
- pull-down binding Z-score [3]: -0.968
- pull-down binding Z-score (TO-N3 (biotin conjugate)): -0.754

Sequence: AACACCAGUUUACUCAUUCUUACCUGGUGUU
- pull-down binding Z-score [1]: -0.56
- pull-down binding Z-score [2]: -0.421
- pull-down binding Z-score [3]: -1.46
- pull-down binding Z-score (TO-N3 (biotin conjugate)): -0.829

Sequence: AACACUUCCCACAGAAGUGUU
- pull-down binding Z-score [1]: -0.222
- pull-down binding Z-score [2]: -0.407
- pull-down binding Z-score [3]: -0.817
- pull-down binding Z-score (TO-N3 (biotin conjugate)): 0.0543

Sequence: AACAGCAGACAACCCUUAAGGGUGUAGAAGCUGUU
- pull-down binding Z-score [1]: -0.872
- pull-down binding Z-score [2]: -0.692
- pull-down binding Z-score [3]: -0.918
- pull-down binding Z-score (TO-N3 (biotin conjugate)): -1.19

Sequence: AACAGGAGUCACCUUUUGUU
- pull-down binding Z-score [1]: -0.0743
- pull-down binding Z-score [2]: -0.0265
- pull-down binding Z-score [3]: -0.716
- pull-down binding Z-score (TO-N3 (biotin conjugate)): -0.267

Sequence: AACAUUAACCUCCACACGCAAGUUGUGGACAUGUCAAUGACAUAUGGACAACAGUUUGGUCCAACUUAUUUGGAUGGAGCUGAUGUU
- pull-down binding Z-score [1]: -1
- pull-down binding Z-score [2]: -0.423
- pull-down binding Z-score [3]: -0.533
- pull-down binding Z-score (TO-N3 (biotin conjugate)): -1.13

Sequence: AACAUUUACUUAUGCAUCAGCAUUGUGGGAAAUCCAACAGGUUGUAGAUGCAGAUAGUAAAAUUGUU [DMSMaPseq_invitro_SARS-CoV-2_Motif_222]
- pull-down binding Z-score [1]: 0.159
- pull-down binding Z-score [2]: -0.0746
- pull-down binding Z-score [3]: -0.134
- pull-down binding Z-score (TO-N3 (biotin conjugate)): -0.126

Sequence: AACCAGUUAACUGGUU [SHAPE_invivo_SARS-CoV-2_Motif_126]
- pull-down binding Z-score [1]: 0.328
- pull-down binding Z-score [2]: -0.406
- pull-down binding Z-score [3]: -1.24
- pull-down binding Z-score (TO-N3 (biotin conjugate)): 0.00533

Sequence: AACCAUACAGGUGUUGUUGGAGAAGGUU [DMSMaPseq_invitro_SARS-CoV-2_Motif_31]
- pull-down binding Z-score [1]: 0.0755
- pull-down binding Z-score [2]: 0.125
- pull-down binding Z-score [3]: -0.444
- pull-down binding Z-score (TO-N3 (biotin conjugate)): -0.0691

Sequence: AACCCUCACCUUAUGGGUU
- pull-down binding Z-score [1]: -0.558
- pull-down binding Z-score [2]: -0.745
- pull-down binding Z-score [3]: -1.48
- pull-down binding Z-score (TO-N3 (biotin conjugate)): -0.946

Sequence: AACGAACUUUAAAAUCUGUGUGGCUGUCACUCGGCUGCAUGCUUAGUGCACUCACGCAGUAUAAUUAAUAACUAAUUACUGUCGUU
- pull-down binding Z-score [1]: -1.01
- pull-down binding Z-score [2]: -0.0969
- pull-down binding Z-score [3]: -0.131
- pull-down binding Z-score (TO-N3 (biotin conjugate)): -0.781

Sequence: AACGGGGCGGGCCCUGGGCGGGGUAA [G4_2A2_VEGF-Pu22-mt2]
- pull-down binding Z-score [1]: 8.94
- pull-down binding Z-score [2]: 10.6
- pull-down binding Z-score [3]: 5.33
- pull-down binding Z-score (TO-N3 (biotin conjugate)): 7.22

Sequence: AACGGGGCGGGCCGGGGGCGGGGUAA [G4_2A2_VEGF-Pu22]
- pull-down binding Z-score [1]: 8.27
- pull-down binding Z-score [2]: 10.4
- pull-down binding Z-score [3]: 4.88
- pull-down binding Z-score (TO-N3 (biotin conjugate)): 6.62

Sequence: AACGGGGCGGGCCUCGGGCGGGGUAA [G4_2A2_VEGF-Pu22-mt3]
- pull-down binding Z-score [1]: 8.63
- pull-down binding Z-score [2]: 10.6
- pull-down binding Z-score [3]: 5.08
- pull-down binding Z-score (TO-N3 (biotin conjugate)): 6.92

Sequence: AACGGGGCGGGCCUGGGCGGGGUAA [G4_2A2_VEGF-Pu22-del]
- pull-down binding Z-score [1]: 8.83
- pull-down binding Z-score [2]: 11
- pull-down binding Z-score [3]: 5.22
- pull-down binding Z-score (TO-N3 (biotin conjugate)): 7.15

Sequence: AACGGGGCGGGCCUUGGGCGGGGUAA [G4_2A2_VEGF-Pu22-mt]
- pull-down binding Z-score [1]: 8.69
- pull-down binding Z-score [2]: 10.6
- pull-down binding Z-score [3]: 5.19
- pull-down binding Z-score (TO-N3 (biotin conjugate)): 7.05

Sequence: AACUACUAUUCAAACAAUUGUUGAGGUUCAACCUCAAUUAGAGAUGGAACUUACACCAGUUGUUCAGACUAUUGAAGUGAAUAGUUUUAGUGGUU
- pull-down binding Z-score [1]: -0.295
- pull-down binding Z-score [2]: -0.609
- pull-down binding Z-score [3]: -0.981
- pull-down binding Z-score (TO-N3 (biotin conjugate)): -0.383
